# In the DeepSol protein solubility set:
# Test: soluble on expression in E. coli; label from the status in PepcDB or PDB records
row,Sequence,soluble on expression in E. coli
1,TGMSREEVESLIQEVLEVYPEKARKDRNKHLAVNDPAVTQSKKCIISNKKSQPGLMTIRGCAYAGSKGIVWGPIKDMIHISHGPVGCGQYSRAGRRNYYIGTTGVNAFVTMNFTSDFQEKDIVFGGDKKLAKLIDEVETLFPLNKGISVQSECPIGLIGDDIESVSKVKGAELSKTIVPVRCEGFRGVSQSLGHHIANDAVRDWVLGKRDEDTTFASTPYDVAIIGDYNIGGDAWSSRILLEEMGLRCVAQWSGDGSISEIELTPKVKLNLVHCYRSMNYISRHMEEKYGIPWMEYNFFGPTKTIESLRAIAAKFDESIQKKCEEVIAKYKPEWEAVVAKYRPRLEGKRVMLYIGGLRPRHVIGAYEDLGMEVVGTGYEFAHNDDYDRTMKEMGDSTLLYDDVTGYEFEEFVKRIKPDLIGSGIKEKFIFQKMGIPFREMHSWDYSGPYHGFDGFAIFARDMDMTLNNPCWKKLQAPWEASEGAEKVAASA,soluble
2,MKQNKLHYTTMIMTQFPDISIQSVESLGEGFRNYAILVNGDWVFRFPKSQQGADELNKEIQLLPLLVGCVKVNIPQYVYIGKRSDGNPFVGYRKVQGQILGEDGMAVFPDDAKDRLALQLAEFMNELSAFPVETAISAGVPVTNLKNKILLLSEAVEDQVFPLLDESLRDYLTLRFQSYMTHPVYTRYTPRLIHGDLSPDHFLTNLNSRQTPLTGIIDFGDAAISDPDYDYVYLLEDCGELFTRQVMAYRGEVDLDTHIRKVSLFVTFDQVSYLLEGLRARDQDWISEGLELLEEDKANNFGANSA,not soluble
3,MEKHDICPSISEYSYHEILGFYINPVENHLASKNMLIDLDERSVEGLLIFIAECNLGIENRVMEHMNKGIRKCKDHRFT,not soluble
4,YTEEELRVLLAESYKSGEIRKSELKYMNNIFTFDKRMAKEIMVPRNEMVSLSLDEDSISNLQETVKQTKYTRYPVVREDKDNVIGVINMKEVLFSMLTKDFSIKKHQIEPFVQPVIHVIETIPIYKLLLKMQKERTHMAILIDEYGGTSGLVTVEDIIEEIVGEIRDEFDADEVPHIRELGKDHYLLNAKLLISDVNSLLGTDLSE,soluble
5,DKLYPCQCGKSFTHKSQRDRHMSMHLGLRPYGCGVCGKKFKMKHHLVGHMKIHTGIKPYECNICAKRFMWRDSFHRHVTSCTKSYEAAKAEQNTTEA,soluble
6,MGRSRRTLPEELLLLALDPTTGTTAQPQSLDLGLAGAQLVELALAGRIAPDGDRIAVVAPRPTGDPTLDCALELLRRRGAPVRAVNWIGGPRLGLRQTYLSHLERCGMVHAVEGQMCGVLPTTRYQATDTAISREIKARLDSAIRTGVPPDPRTAALAALAHAVGLGKHLYPGNEGRSSRSRLRDLIRHDPMGGLVAHAVMDVQNGAAAQPRRSPAPAGRQAPGPGARPAPEPARGVPAQPRHGSMARAAVHLEHHHHHH,soluble
7,MGSDKIHHHHHHMRLITFDASYDPIAEESKTVRVYVFEPEKIERNLIFLHGIGNGNIPYLLWFGEKFREYNIKTWFLILPYHEKRAPENWSGGEPFYHSSPSFCVKRFDEAVQDVIDLVDVVKRDNDKPISLMGFSFGGMITTIALAREKRIEKGVICCSGGDWRWINWYSPYTERLRELYRKNGNEYGCRSEKDCIKNRRNAPEIIKSFNSIEDIRKKPPVGCYFYDPASFAPFVDQKVLFFWALFDHVIPYQSYACLHKLLKNKKTVYLPSGHKGSYFFRRYIAKRVVRFLIDDE,not soluble
8,KTHFVIQLKEDSQLMDEVVVVGFGTQKKINLTGAVTAVNIQETLGDRPITNVTAALQGVVPGLKIEGTTGTPGDNLSYNIRGTTSINGGGPLVLVNNVPMDINMIDPQDIESVSVLKDAASAAIYGARAAFGVILITTKQGKKDM,not soluble
9,MTEKALDSKQTGYCLSTDHYRIRRALPSDYDSILALWEDARHTMLASDNPQWQGAYPGETEAQEDIARGEAFLLDIAGTPLGVMAVNDQMPAEYGSLPWQTEGKAYTIHRLGVHSSLLRKGYAAAMLFSAETIAREQGGTCIRIDTYSPNTAAQSLFRRLGYRQVCSFHMKQKPLPYIAFEKSLLKQLGSG,not soluble
10,GPGSMQTAHAHTMTAQMKVLKPKTVFDNRPDEARKPIKLILLGDSAVGKSKLVERFLMQRYIPVQMSTYALTLYRYDFVTEDGEEVDVDIWDTAGQERFATVHPSYYHDAHACILVFDSTRKATYKNLEKWLSEMRVYREHIPCLVACNKIDTDPSVTTKSFAFAEKHNFPLYYVSAADGSNVVQLFESAISTAAAYKKNPAKDDFMTQVIGILKEDKTAAGASAVSS,soluble
11,MALPTIESFKKLSSEDKRQVLDHLFEPCNTLSNFVFIKVLHQQYNTYPEFINLVRKELLEFLKQSETFQSQYQGEISPVINEIISAHPRLGEPKKETLSVHSNNEQKTLNNDPEIIKKLKELNAAYEKTFPGLRYVVFVNGRSRHEIMDNMQKRIERNDINLERVEAFNAMCDIALDRANKLGIKL,not soluble
12,QGHMRATNVTYQAHHVSRNKRGQVVGTRGGFRGCTIWLTGLSGAGKTTVSMALEEYLVCHGIPCYTLDGDNIRQGLNKNLGFSPEDREENVRRIAEVAKLFADAGLVCITSFISPYTQDRNNARQIHEGASLPFFEVFVDAPLHVCEQRDVKGLYKKARAGEIKGFTGIDSEYEKPEAPELVLKTDSCDVNDCVQQVVELLNERDILP,soluble
13,MGSDKIHHHHHHMGNIEIKRVIAHHMDLGATKPTFLNNVIDISQEEMQDVIVFFGNHVKKALTTAQLKTCVFKNEDDEVYKYCKELAEDQSDDKLFVRVTRRMTIKLFYNMKRTSSTSSATLIFLHYFNVDSGKDYLGILKMDPNDGIELDPERVVFKVRKHMLPNVKERLHKSAFIKLDEKLFAEESHLYVLDKQQKMDGISKFFLEAFLNAKEVNSDKKTTAFFNTAVMEVARSEKVPNMFAIAKKVSDSMTEGKYIKVDSMLEEVLHDFIPGEEDRFDFIERVKQQMKKKNEDVQFEFTVEKEKEAISFLHNDDKSIQLRFKSILLGTDVFYDEEEDEDGNKFIVLKIREKNIESNFEFKK,not soluble
14,MSLGTGRNGGRAIVATGLGQCCWDTLAVVDSYPSPDSKAEAAVWAEQAGGPTATALVALARLGIPCRFAGVVGDDDAGSRIRQALDSEGVDGAFLVTRRRGASQRAFIMIERGSGRRTIVWRRPTGDPLDPREVPDAFLAGSSLLLLDGLMADASLHAAGRARSLGIPVMVDAGRMRPGMLDITRQCDYVVAAEQFFLDLGWDRTPEHFRGLAADLGAPVVTVTLGAAGSLTWSGHEPFHVPAFTVDAVDTTGAGDVFHGGYGYGILQGWSVRETVVFASAMAAMKCRQVGAQQGIPRLPDVLEFLTRRTITVLSNPQTEGHHHHHH,soluble
15,MGSDKIHHHHHHMPAIELSNGEARLLARPDLGAGLTAFDVLHDGVWQAIFRRVDPSTAHPFALSNILLVPFSGRVSGGGFTFDGTFHALPRNVETELYPIHGNGFSAAWDVASLSADLLTLTLSAEGPGPFRYDATMSYRLQGAGLLMELSLVNRARIRLPYGAGFHPWFVREPDTTLHAPARGVWLEQSDHLPKAHDAIAAQADLDFNRPKPLPARWINNWFDGWDGKARIHWPSRGLAVDVDASEGLRQYVVFSPAAAADFFCFEPVTHPVDAFNLPGKAEAHGLKILEPDESLAVSARVAADFG,not soluble
16,MNDFSLELPVRTNKPRETGQSILIDNGYPLQFFKDAIAGASDYIDFVKFGWGTSLLTKDLEEKISTLKEHDITFFFGGTLFEKYVSQKKVNEFHRYCTYFGCEYIEISNGTLPMTNKEKAAYIADFSDEFLVLSEVGSKDAELASRQSSEEWLEYIVEDMEAGAEKVITEARESGTGGICSSSGDVRFQIVDDIISSDIDINRLIFEAPNKTLQQGFIQKIGPNVNLANIPFHDAIALETLRLGLRSDTFFL,soluble
17,PPHVEYMRRLELADYEPASDSGHIRYYPKGRLVKTLLEQFITRKCIDYGAMEVETPIMYDRNHPTLRRYLERFPARQYIIKGDKREFFLRFAACFGQFLMLSSSTITYRNLPLKIYELTRYSFRKEQRGELVGLRRLRAFTMPDMHTVAKDMEQAKEEFFNQYRLSVEVLREIGLEPEDYEVAVRITKDFYEENREFVHSLVDILKKPILIEMWDHRFFYFVLKFEFNFVDALDKASALSTVQIDVENAERYGITFVDSDGKEKHPYILHCSVSGAVERVMYALLEKAK,not soluble
18,ITRDEVGELARVMNEMASQIERNLARISAEKNRLDTILRGMGEGLMVSDAGGTVTLVNPAFLELFGLTQSVEGRQIIEIARFPELHETFRAVVSSRSEHVEEMTLPLGDEKQVLTHWVPLMEE,not soluble
